{"source": "paper PMC12887176", "about": "“IRF1 is a context-dependent homeostatic gatekeeper of basal immunity and antiviral readiness”", "target": "T1, IRF1 DBD-mNeonGreen (UniProt P10914 1-136)", "T1 sequence": "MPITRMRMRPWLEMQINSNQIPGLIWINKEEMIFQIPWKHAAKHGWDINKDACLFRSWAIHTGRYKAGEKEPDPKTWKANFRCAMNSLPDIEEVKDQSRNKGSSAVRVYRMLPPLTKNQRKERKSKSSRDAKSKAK", "test": "mass photometry; 1:1 protein:DNA; ~45 to ~65 kDa; 1:1 molar protein:DNA, 4 h at room temperature; protein lysed in PBS with 360 mM NaCl, 10% glycerol, DTT (assay buffers and pH not given); PBM: PBS, 360 mM NaCl, 1 mM DTT, 2% milk, 0.2% Triton X-100, room temperature", "details": "protein: recombinant; tags: mNeonGreen fusion (42 kDa total); blunt"}
{"binder": "specific DNA (IRF1 consensus) (dsDNA) DNA 1: GAGAAGTGAAAGTACTTTCACTTCTC DNA 2: GAGAAGTGAAAGTACTTTCACTTCTC", "values": [{"measurement": "binding result", "value": "binds"}]}
